Assay results reported in IntAct's records for PubMed 31515488.

B1: Notch homolog 2 N-terminal-like protein A (Homo sapiens), Q7Z3S9 (parent)
chain: MCVTYHNGTGYCKCPEGFLGEYCQHRDPCEKNRCQNGGTCVAQAMLGKATCRCASGFTGEDCQYSTSHPCFVSRPCLNGGTCHMLSRDTYECTCQVGFTGKECQWTDACLSHPCANGSTCTTVANQFSCKCLTGFTGQKCETDVNECDIPGHCQHGGTCLNLPGSYQCQCLQGFTGQYCDSLYVPCAPSPCVNGGTCRQTGDFTFECNCLPETVRRGTELWERDREVWNGKEHDEN
partner: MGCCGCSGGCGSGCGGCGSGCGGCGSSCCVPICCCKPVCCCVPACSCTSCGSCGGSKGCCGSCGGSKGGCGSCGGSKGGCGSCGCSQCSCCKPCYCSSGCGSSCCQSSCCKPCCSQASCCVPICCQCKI
B2: MAGUK p55 subfamily member 2 (Homo sapiens), Q14168-2 (parent)
chain: MPVAATNSETAMQQVLDNLGSLPSATGAAELDLIFLRGIMESPIVRSLAKAHERLEETKLEAVRDNNLELVQEILRDLAHVAEQSSTAAELAHILQEPHFQSLLETHDSVASKTYETPPPSPGLDPTFSNQPVPPDAVRMVGIRKTAGEHLGVTFRVEGGELVIARILHGGMVAQQGLLHVGDIIKEVNGQPVGSDPRALQELLRNASGSVILKILPSYQEPHLPRQVFVKCHFDYDPARDSLIPCKEAGLRFNAGDLLQIVNQDDANWWQACHVEGGSAGLIPSQLLEEKRKAFVKRDLELTPNSGTLCGSLSGKKKKRMMYLTTKNAEFDRHELLIYEEVARMPPFRRKTLVLIGAQGVGRRSLKNKLIMWDPDRYGTTVPYTSRRPKDSEREGQGYSFVSRGEMEADVRAGRYLEHGEYEGNLYGTRIDSIRGVVAAGKVCVLDVNPQAVKVLRTAEFVPYVVFIEAPDFETLRAMNRAALESGISTKQLTEADLRRTVEESSRIQRGYGHYFDLCLVNSNLERTFRELQTAMEKLRTEPQWVPVSWVY
partner: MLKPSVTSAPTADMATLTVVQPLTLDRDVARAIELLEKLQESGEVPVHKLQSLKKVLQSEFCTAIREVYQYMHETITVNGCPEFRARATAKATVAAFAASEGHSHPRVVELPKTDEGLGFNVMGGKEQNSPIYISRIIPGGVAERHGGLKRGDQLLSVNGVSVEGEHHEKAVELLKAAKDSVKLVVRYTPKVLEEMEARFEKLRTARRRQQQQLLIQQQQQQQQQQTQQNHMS
B3: Zinc finger CCHC domain-containing protein 10 (Homo sapiens), Q8TBK6 (parent)
chain: MATPMHRLIARRQAFDTELQPVKTFWILIQPSIVISEANKQHVRCQKCLEFGHWTYECTGKRKYLHRPSRTAELKKALKEKENRLLLQQSIGETNVERKAKKKRSKSVTSSSSSSSDSSASDSSSESEETSTSSSSEDSDTDESSSSSSSSASSTTSSSSSDSDSDSSSSSSSSTSTDSSSDDEPPKKKKKK
partner: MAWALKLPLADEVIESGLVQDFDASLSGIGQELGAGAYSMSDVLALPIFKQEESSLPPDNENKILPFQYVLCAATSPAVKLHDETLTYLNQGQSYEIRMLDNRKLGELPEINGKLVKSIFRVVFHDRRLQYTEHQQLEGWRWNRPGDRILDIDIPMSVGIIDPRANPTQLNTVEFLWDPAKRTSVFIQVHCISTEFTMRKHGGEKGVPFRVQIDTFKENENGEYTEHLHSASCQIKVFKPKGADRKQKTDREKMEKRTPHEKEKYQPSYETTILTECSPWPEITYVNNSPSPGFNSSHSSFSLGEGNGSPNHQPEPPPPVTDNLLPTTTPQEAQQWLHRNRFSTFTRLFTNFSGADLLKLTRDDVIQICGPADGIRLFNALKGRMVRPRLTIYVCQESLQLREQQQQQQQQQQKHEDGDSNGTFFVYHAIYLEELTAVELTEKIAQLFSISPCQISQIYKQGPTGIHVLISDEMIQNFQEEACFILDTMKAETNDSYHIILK
B4: Transcription factor 12 (Homo sapiens), Q99081-3 (parent)
chain: MNPQQQRMAAIGTDKELSDLLDFSAMFSPPVNSGKTRPTTLGSSQFSGSGIDERGGTTSWGTSGQPSPSYDSSRGFTDSPHYSDHLNDSRLGAHEGLSPTPFMNSNLMGKTSERGSFSLYSRDTGLPGCQSSLLRQDLGLGSPAQLSSSGKPGTAYYSFSATSSRRRPLHDSAALDPLQAKKVRKVPPGLPSSVYAPSPNSDDFNRESPSYPSPKPPTSMFASTFFMQDGTHNSSDLWSSSNGMSQPGFGGILGTSTSHMSQSSSYGNLHSHDRLSYPPHSVSPTDINTSLPPMSSFHRGSTSSSPYVAASHTPPINGSDSILGTRGNAAGSSQTGDALGKALASIYSPDHTSSSFPSNPSTPVGSPSPLTGTSQWPRPGGQAPSSPSYENSLHSLKNRVEQQLHEHLQDAMSFLKDVCEQSRMEDRLDRLDDAIHVLRNHAVGPSTSLPAGHSDIHSLLGPSHNAPIGSLNSNYGGSSLVASSRSASMVGTHREDSVSLNGNHSVLSSTVTTSSTDLNHKTQENYRGGLQSQSGTVVTTEIKTENKEKDENLHEPPSSDDMKSDDESSQKDIKVSSRGRTSSTNEDEDLNPEQKIEREKERRMANNARERLRVRDINEAFKELGRMCQLHLKSEKPQTKLLILHQAVAVILSLEQQVRERNLNPKAACLKRREEEKVSAVSAEPPTTLPGTHPGLSETTNPMGHM
partner: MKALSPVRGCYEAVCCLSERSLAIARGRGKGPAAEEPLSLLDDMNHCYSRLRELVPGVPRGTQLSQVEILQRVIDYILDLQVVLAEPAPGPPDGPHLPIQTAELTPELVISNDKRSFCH

Variants of: B1
Conditions: with kra56_human KRTAP5-6, Q6L8G9
In the case of R74Q, the “effect of a mutation on the interaction” value is reported as “with no effect”.

Variants of: B2
Conditions: with lin7a_human LIN7A
In the case of R500W, the “effect of a mutation on the interaction” value is reported as “with no effect”.

Variants of: B3
Conditions: with tfcp2_human TFCP2, Q12800
In the case of S153P, the “effect of a mutation on the interaction” value is reported as “with no effect”.

Variants of: B4
Conditions: with id3_human ID3, Q02535
With A155T the “effect of a mutation on the interaction” value was “with no effect”.
N606H was tested, and the “effect of a mutation on the interaction” value was “with no effect”.
For Y120C, the “effect of a mutation on the interaction” value was “with no effect”.
